How the values were obtained:
Assay in all cases: cell-based or functional assay
[1] = molecular target: T1, factor VIIIa A1/A3C1C2 dimer, D27A (human, UniProt P00451 20-391; P00451 1709-2351)
T1 chain 1: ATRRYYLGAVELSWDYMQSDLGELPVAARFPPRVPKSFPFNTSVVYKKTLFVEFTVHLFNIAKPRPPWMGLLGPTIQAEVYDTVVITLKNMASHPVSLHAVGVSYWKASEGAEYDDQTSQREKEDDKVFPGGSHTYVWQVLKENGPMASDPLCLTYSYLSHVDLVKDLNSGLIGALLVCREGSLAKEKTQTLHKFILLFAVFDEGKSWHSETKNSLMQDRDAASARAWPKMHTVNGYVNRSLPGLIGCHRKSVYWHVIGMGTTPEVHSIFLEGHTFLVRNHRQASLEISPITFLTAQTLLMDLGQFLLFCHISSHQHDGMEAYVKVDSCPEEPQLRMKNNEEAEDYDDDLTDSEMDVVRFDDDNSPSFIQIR
T1 chain 2: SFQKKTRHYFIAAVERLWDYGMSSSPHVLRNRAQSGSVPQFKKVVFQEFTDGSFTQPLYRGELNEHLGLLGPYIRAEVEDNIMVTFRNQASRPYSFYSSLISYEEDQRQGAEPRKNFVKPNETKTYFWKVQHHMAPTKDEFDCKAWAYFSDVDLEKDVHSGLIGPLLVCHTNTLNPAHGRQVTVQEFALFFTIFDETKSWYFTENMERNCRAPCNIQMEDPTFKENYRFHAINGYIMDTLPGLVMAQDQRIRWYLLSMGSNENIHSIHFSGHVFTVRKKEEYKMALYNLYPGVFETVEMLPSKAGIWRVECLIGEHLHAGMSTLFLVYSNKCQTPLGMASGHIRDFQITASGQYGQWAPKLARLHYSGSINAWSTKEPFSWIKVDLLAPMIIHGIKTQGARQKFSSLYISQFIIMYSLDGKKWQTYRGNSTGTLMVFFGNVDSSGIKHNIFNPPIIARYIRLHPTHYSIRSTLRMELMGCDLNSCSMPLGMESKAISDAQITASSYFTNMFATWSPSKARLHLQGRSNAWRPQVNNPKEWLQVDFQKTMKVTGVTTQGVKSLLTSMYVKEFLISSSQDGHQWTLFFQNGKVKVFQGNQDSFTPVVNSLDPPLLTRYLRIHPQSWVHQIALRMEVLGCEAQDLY

[2] = molecular target: T2, factor VIIIa A1/A3C1C2 dimer, R1966A (human, UniProt P00451 20-391; P00451 1709-2351)
T2 sequence 1: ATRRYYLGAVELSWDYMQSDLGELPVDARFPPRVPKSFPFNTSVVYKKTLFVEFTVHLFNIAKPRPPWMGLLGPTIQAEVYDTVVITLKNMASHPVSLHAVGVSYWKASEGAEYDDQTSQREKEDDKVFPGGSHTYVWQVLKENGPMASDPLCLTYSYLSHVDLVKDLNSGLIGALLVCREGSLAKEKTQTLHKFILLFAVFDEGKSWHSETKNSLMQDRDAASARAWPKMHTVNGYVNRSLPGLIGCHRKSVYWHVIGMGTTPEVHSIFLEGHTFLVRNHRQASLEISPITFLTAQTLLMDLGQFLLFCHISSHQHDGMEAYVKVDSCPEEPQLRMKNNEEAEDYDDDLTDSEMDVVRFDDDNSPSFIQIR
T2 sequence 2: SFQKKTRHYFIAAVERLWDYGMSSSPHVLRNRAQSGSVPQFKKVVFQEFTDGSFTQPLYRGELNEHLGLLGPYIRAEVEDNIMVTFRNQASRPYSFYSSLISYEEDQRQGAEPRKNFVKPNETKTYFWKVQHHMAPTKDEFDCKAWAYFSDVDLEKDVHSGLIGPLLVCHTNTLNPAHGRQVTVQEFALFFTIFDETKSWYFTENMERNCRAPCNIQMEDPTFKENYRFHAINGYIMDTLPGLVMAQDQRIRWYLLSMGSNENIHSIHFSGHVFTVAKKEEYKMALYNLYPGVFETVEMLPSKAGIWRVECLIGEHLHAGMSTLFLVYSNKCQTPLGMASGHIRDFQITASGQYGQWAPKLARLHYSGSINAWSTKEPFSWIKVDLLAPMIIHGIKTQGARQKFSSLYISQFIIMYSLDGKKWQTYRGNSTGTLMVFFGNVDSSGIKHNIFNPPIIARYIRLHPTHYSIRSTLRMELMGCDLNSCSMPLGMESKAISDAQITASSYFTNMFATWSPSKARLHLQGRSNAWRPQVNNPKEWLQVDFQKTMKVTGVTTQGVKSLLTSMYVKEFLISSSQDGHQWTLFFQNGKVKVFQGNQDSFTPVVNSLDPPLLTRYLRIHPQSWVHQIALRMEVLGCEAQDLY

[3] = molecular target: T3, factor VIIIa A1/A3C1C2 dimer, D1795A (human, UniProt P00451 20-391; P00451 1709-2351)
T3 sequence 1: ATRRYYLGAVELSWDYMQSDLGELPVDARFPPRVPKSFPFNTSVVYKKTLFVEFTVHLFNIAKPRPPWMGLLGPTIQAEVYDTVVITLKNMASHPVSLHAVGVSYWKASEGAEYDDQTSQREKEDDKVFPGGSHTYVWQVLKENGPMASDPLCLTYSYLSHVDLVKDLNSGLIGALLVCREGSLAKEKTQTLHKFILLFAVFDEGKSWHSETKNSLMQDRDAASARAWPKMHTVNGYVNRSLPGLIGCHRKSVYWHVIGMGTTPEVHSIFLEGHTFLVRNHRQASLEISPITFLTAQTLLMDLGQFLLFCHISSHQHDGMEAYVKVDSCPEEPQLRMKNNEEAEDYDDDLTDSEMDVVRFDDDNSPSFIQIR
T3 sequence 2: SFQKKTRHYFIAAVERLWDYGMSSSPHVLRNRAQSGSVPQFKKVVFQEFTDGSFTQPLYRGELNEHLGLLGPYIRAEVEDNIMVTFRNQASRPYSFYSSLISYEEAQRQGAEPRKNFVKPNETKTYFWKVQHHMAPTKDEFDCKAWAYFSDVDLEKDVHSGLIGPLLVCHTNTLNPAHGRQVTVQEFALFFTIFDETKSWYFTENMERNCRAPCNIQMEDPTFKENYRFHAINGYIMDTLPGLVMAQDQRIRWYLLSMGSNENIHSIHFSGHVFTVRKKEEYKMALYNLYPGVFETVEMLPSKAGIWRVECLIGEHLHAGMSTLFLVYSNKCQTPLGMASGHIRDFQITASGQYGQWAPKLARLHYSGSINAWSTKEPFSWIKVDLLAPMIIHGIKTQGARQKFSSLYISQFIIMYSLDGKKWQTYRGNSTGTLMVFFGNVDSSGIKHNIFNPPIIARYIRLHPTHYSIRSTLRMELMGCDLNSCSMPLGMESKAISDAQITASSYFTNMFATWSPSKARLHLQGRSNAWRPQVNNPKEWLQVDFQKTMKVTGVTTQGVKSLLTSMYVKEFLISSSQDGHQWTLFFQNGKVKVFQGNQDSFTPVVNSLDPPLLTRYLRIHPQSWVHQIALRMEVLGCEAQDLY

B1: factor VIIIa A2 subunit, wild type (other)
chain: SVAKKHPKTWVHYIAAEEEDWDYAPLVLAPDDRSYKSQYLNNGPQRIGRKYKKVRFMAYTDETFKTREAIQHESGILGPLLYGEVGDTLLIIFKNQASRPYNIYPHGITDVRPLYSRRLPKGVKHLKDFPILPGEIFKYKWTVTVEDGPTKSDPRCLTRYYSSFVNMERDLASGLIGPLLICYKESVDQRGNQIMSDKRNVILFSVFDENRSWYLTENIQRFLPNPAGVQLEDPEFQASNIMHSINGYVFDSLQLSVCLHEVAYWYILSIGAQTDFLSVFFSGYTFKHKMVYEDTLTLFPFSGETVFMSMENPGLWILGCHNSDFRNRGMTALLKVSSCDKNTGDYYEDSYEDISAYLLSKNNAIEPR
- Factor VIIIa decay rate relative to wild type, FIXa (+) [1]: 0.79 relative to wild type
- Factor VIIIa decay rate, FIXa (+) [1]: 0.0089 min⁻¹
- Factor VIIIa decay rate relative to wild type, FIXa (+) [2]: 1.44 relative to wild type
- Factor VIIIa decay rate, FIXa (+) [2]: 0.0163 min⁻¹
- Factor VIIIa decay rate relative to wild type, FIXa (+) [3]: 2.11 relative to wild type
- Factor VIIIa decay rate, FIXa (+) [3]: 0.0238 min⁻¹
